Results published in PMC5795001, “The activity of the C4-dicarboxylic acid chemoreceptor of Pseudomonas aeruginosa is controlled by chemoattractants and antagonists” (Scientific Reports, 2018).

Target: the molecule itself
Experiment: AUC; sedimentation velocity, ligand-free protein at 5-20 uM, 48 000 rpm, 7 °C, 20 mM PIPES pH 7.0

B1: ligand binding domain (LBD) of the chemoreceptor PA2652 (domain or fragment, Pseudomonas aeruginosa PAO1, UniProt Q9I0I6 34-205, looked up)
chain: KKQADAEVKDTRERLLGDRRAELEHYVQIAMGSIQAEYDRSANGDLNARAEAIARLSKIKYGKDGYIFGYDSQVVRLFRGDSPVDVGKSFRDRRDPSGVYLNRELVEAGRNGSHYVTYTSPLPGNESVMVPKLSYTLYLPKWDMVIGSAINLDGVEAQLVEIKQDIDERIGT
notes: No removal of the tag is described; this is surmised; also called PA2652-LBD
stoichiometry N: 2
